# Assay results: publication PMC6770254
# Several values for one entry are separate records, joined by “and”; a condition that tells them apart may be missing. Equal entries are not always repeated.
# Key:
# Experiment in all cases: crystal structure; crystals from 2.2 M DL-malic acid, pH 6.5, with or without 5 mM PPi (hanging drop); data at 100 K; oligomers read from the asymmetric unit and the crystal packing
# [1] = molecular target: Acinetobacter baumannii pyrophosphatase K30R variant (Acinetobacter baumannii) (UniProt V5VHL7)
# [2] = molecular target: Acinetobacter baumannii pyrophosphatase K149R variant (Acinetobacter baumannii) (UniProt V5VHL7)
# [3] = molecular target: Acinetobacter baumannii pyrophosphatase, wild type (Acinetobacter baumannii) (UniProt V5VHL7)
substance,measurement,setting,value
Acinetobacter baumannii pyrophosphatase K30R variant (from UniProt V5VHL7 5-174) (enzyme),stoichiometry N,[1],6 and 3
Acinetobacter baumannii pyrophosphatase K149R variant (from UniProt V5VHL7 5-174) (enzyme),stoichiometry N,[2],6
"Acinetobacter baumannii pyrophosphatase, wild type (from UniProt V5VHL7 5-174) (enzyme)",stoichiometry N,[3],6
